How the values were obtained:
Assay in all cases: MST
Settings in all cases: MST with Cy5-labelled tRNA; buffer, salt, pH and temperature not in the material (protein storage: 10 mM Tris-HCl pH 8.0, 200 mM NaCl, 0.5 mM TCEP)
[1] = system: ADAT2;ADAT3 WT (Mus musculus;Mus musculus)
[2] = system: ADAT2;ADAT3-Δloop (Mus musculus;Mus musculus)
[3] = system: TadA (Escherichia coli)
[4] = system: ADAT2;ADAT3-V128I (Mus musculus;Mus musculus)
[5] = system: ADAT2;ADAT3-V128L (Mus musculus;Mus musculus)
[6] = system: ADAT2;ADAT3-V128M (Mus musculus;Mus musculus)
[7] = system: ADAT2;ADAT3-ΔN (Mus musculus;Mus musculus)

Substance | Kd [1] [µM] | Kd [2] [µM] | Kd [3] [µM] | Kd [4] [µM] | Kd [5] [µM] | Kd [6] [µM] | Kd [7] [µM]
tRNAArg(ACG) | 3.7 | 6.5 | 6.6 |  |  |  | 
tRNAVal(AAC) | 3.5 | 6.7 |  | 3.3 | 4.2 | 2.5 | 44.5
tRNAGly(CCC) | 3 |  |  |  |  |  | 35.8
tRNAAla(AGC) | 8 | 6.7 |  |  |  |  | 
